The results in this text go back to US20140322262A1.

The target in one assay is centromere B protein (UniProt P07199). Kind of assay: Luminex AtheNA Multi-Lyte ANA Test, 0.15 µg mab per test.
The next assay concerns the target Histones. Described as above.
A further assay deals with FMS peptide (T4; HIV-1). Kind of assay: SPR, FMS conjugate in DMPC liposomes. For orientation: SPR reads the build-up and loss of mass on a sensor chip optically.
The next assay has as its target SS-A/Ro. Kind of assay: Luminex AtheNA Multi-Lyte ANA Test, 0.15 µg mab per test.
Another assay concerns the target Mab 4E10. Kind of assay: ELISA; gp140 (19.25-1230 nM) mixed with 10 µg/ml 4E10 MAb, added to wells with 1.35 µg cardiolipin.

Sequence of FMS peptide (T4; HIV-1) (P03375 656-683): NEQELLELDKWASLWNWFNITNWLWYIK
Sequence of UniProt P07199 (P07199 2-599): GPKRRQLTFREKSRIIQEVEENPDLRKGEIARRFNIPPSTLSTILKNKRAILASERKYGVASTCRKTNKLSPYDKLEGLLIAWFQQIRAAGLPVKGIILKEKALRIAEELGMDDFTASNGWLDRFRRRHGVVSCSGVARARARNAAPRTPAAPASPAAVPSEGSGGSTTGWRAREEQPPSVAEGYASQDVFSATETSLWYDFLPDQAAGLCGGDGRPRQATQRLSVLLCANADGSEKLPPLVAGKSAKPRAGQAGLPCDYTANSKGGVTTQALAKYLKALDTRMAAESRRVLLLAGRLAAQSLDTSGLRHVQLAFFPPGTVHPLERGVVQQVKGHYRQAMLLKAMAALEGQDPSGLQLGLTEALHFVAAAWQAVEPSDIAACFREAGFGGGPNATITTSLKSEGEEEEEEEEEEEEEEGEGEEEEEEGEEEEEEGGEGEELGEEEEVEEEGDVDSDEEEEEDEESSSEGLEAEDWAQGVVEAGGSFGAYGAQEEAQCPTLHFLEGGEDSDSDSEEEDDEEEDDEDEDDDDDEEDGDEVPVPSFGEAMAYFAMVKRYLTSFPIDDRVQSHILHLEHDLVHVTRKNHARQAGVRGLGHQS

Regarding IgG1b12 (antibody), the relative units based on a standard curve (relative units) with centromere B protein came to 479; with Histones, 185.

The Kd is the equilibrium constant for the complex coming apart. Higher therefore signals weaker binding. The substance Mab 2F5 (antibody) came in with a Kd in the assay with FMS peptide (T4; HIV-1) of 0.18 nM. The relative units based on a standard curve (relative units) with centromere B protein worked out at 1780; with SS-A/Ro, 290; with Histones, 1010.

In the assay with FMS peptide (T4; HIV-1), Mab 4E10 (antibody) returned a Kd of 27 nM. The same substance had a relative units based on a standard curve (relative units) with SS-A/Ro of 221.

The IC50 is the concentration that inhibits the measured activity by half. Higher therefore signals weaker potency. Regarding “soluble HIV-1 Env gp140 oligomers (CON-S)”, the IC50 in the assay with Mab 4E10 worked out at 145 nM.
